The target of the assay is Rabbit skeletal muscle actin (filaments with free barbed ends) (rabbit) (UniProt P68135).

C-terminal half of mouse CAP2, C-CAP2 (219–476)-6His, sequence (Q9CYT6 219-476): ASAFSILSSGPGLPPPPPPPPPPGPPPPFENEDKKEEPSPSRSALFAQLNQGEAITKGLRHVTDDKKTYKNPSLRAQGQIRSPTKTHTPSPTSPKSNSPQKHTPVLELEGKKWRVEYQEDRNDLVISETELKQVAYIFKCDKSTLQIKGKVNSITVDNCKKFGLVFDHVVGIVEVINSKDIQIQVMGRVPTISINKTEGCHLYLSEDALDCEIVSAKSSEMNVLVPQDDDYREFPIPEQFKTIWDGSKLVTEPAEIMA

Turning to “C-terminal half of mouse CAP2, C-CAP2 (219–476)-6His (from UniProt Q9CYT6 219-476) (domain or fragment)”, the barbed end depolymerization rate in mf-TIRF, no actin monomers, 1 μM C-CAP2 (2.5- to 3-fold faster than control) (subunits s^−1) is 10.8.

The values are drawn from paper PMC10692737.
